Patent US12187807B2, “Antibody molecules to C5AR1 and uses thereof” (Visterra, Inc., priority 2020, dated 2025)
Residue numbers refer to the chain shown, from its start.

T1: C5aR1 (C5aR1-U937 cells) (Homo sapiens, UniProt P21730, K279N)
T1 construct: expressed in transfected cells
T1 sequence (P21730 with tags, fused parts or gaps K279N limits assumed): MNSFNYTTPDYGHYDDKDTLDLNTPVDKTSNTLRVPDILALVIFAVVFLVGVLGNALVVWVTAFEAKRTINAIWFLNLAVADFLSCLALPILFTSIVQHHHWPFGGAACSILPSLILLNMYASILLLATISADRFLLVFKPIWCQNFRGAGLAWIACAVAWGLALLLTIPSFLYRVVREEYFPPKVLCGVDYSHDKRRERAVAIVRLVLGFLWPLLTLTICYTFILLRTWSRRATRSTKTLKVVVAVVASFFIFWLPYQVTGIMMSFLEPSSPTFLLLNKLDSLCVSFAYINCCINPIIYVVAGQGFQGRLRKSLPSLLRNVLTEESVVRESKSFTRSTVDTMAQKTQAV

T2: C5aR1 (human neutrophils) (Homo sapiens, UniProt P21730)
T2 construct: neutrophils isolated from whole blood; host or cells: human neutrophils (cryopreserved, or isolated from whole blood)
T2 sequence (P21730 1-350): T1 sequence (P21730 with tags, fused parts or gaps K279N limits assumed) with N2D, N279K

B1: clone 329: anti-C5aR1 Site II antibody; VH SEQ ID NO: 492, VL SEQ ID NO: 552 (antibody, V domains shown)
VH: QVQLQQSGAELTKPGASVKLSCKASGYTFTNYWMHWVKQRPGQGLEWIGYLNPSSGYTKYNQKFKDKATLTADKSSSTAYMQLNSLTYEDSAVYYCTRSGGDNYGNPYYFDRWGQGTTVTVSS
VL: DVVMTQTPLSLTVSLGDQASISCRSSQSLVHSNGNTYLHWYLQKPGQSPKFLIYKVSNRFSGVPDRFSGSGSGTDFRLKISRVEAEDLGVYFCSQSTLVPLTFGAGTKLEIK
B2: clone 583: anti-C5aR1 Site I antibody; VH SEQ ID NO: 536, VL SEQ ID NO: 595 (antibody, V domains shown)
VH: EVQLVESGGGLVKPGGSLKLSCAASGFTFNAYAMSWVRQTPEKRLEWVASISTGGNTYCPDSVKDRFTVSRDNVRNILYLQMSSLRSEDTAMYYCTRGYQRFSGFAYWGQGTLVTVS
VL: DVVMTQTPLSPPVSLGYQASISCRSSQSLVHSNGNTYLNWYLQKPGQSPKLLIYKVSNRLSGVPDRFSGSGSGTDFTLKISRVETEDLGVYFCSQSTHVPYTFGGGTKLEIK

What was measured:
Type in all cases: cell-based
C5aR1 (C5aR1-U937 cells) = molecular target: T1, C5aR1 (C5aR1-U937 cells); test: C5a induced chemotaxis (transwell), C5aR1-U937 cells; conditions: for inhibition of cell chemotaxis: C5aR1-U937 cells, 1, 10, or 100 nM antibody, C5a 10^−6 to 10^−9.5 M; for inhibition of chemotaxis as single agents: FIGS. 18A-18C, cells not given
Excerpt: (§1) One of the primary mechanisms by which neutrophils migrate to the site of inflammation is by chemotaxis induced by a C5a/C5adesArg gradient is detected by C5aR1 signaling. Anti-C5aR1 antibodies were thus assessed in a chemotaxis assay for their ability to block C5a induced migration of neutrophils. The assay involved cell migration in a double chamber well separated by filters. The cells and inhibitors were applied into the upper chamber and the lower chamber was filled with the chemoattractant, causing the cells to migrate to the lower chamber. The inhibition activity was evaluated by counting the migrated cell numbers. Specifically, a titration of C5a was added to the bottom chamber a 96 transwell plate. Cells expressing human C5aR1 (C5aR1-U937 cells or human neutrophils) were incubated with or without antagonist and then seeded into the top chamber of the transwell plate. The cells were incubated for 2 hours. Cells that migrated to the bottom chamber were quantified using the CyQUANT cell proliferation kit following the manufacturer's protocol. The assay was performed using engineered cells stably expressing C5aR1 as well as using human neutrophils.
as §1, with “Anti-C5aR1” for “One of the primary mechanisms by which neutrophils migrate to the site of inflammation is by chemotaxis induced by a C5a/C5adesArg gradient is detected by C5aR1 signaling. Anti-C5aR1”, “were” for “were thus”
In a first experiment, C5aR1-U937 cells were seeded into the top chamber of a 96 Transwell plate in the presence of no antibody (antagonist), or of 1, 10, or 100 nM antibody (antagonist).

[1] = molecular target: T2, C5aR1 (human neutrophils); test: C5a induced chemotaxis (transwell), human neutrophils; conditions: 1, 10, or 100 nM antagonist, C5a 10^−6 to 10^−9.5 M
Excerpt: as §1, with “The assay was performed using engineered cells stably expressing C5aR1 as well as using human neutrophils.” left out
Anti-C5aR1 antibodies were assessed in a chemotaxis assay for their ability to block C5a induced migration of neutrophils. […] The inhibition activity was evaluated by counting the migrated cell numbers. […] Cells that migrated to the bottom chamber were quantified using the CyQUANT cell proliferation kit following the manufacturer's protocol. […]

[2] = molecular target: T2, C5aR1 (human neutrophils); test: C5a induced calcium flux (Fluo-4), human neutrophils
Excerpt: Intracellular calcium is released into the cytoplasm by stimulation of GPCRs and acts as a second messenger of GPCR signaling, commonly used to quantify GPCR agonism and antagonism. As such, calcium flux assays using calcium sensitive dye were utilized to detect cytosolic changes in calcium concentration. […] The dye penetrated the cell membrane and became active once inside the cell. The active form of the dye became fluorescent after binding to intracellular calcium and the fluorescence was used to determine C5aR1 signaling in response to C5a addition. Specifically, stable C5aR1-U937 cells or neutrophils isolated from whole blood were stained with Fluo-4 Direct Calcium Assay kit from Thermo Fisher for 1 hour at 37° C. Next, antibody or antagonist was incubated with the cells for 30 minutes. The basal fluorescence with an excitation at 494 nm and emission at 516 nm was measured for 15 seconds. C5a was added to the cells and the fluorescence was measured over a span of four minutes. The basal read from before C5a stimulation and the max signal after C5a stimulation were used to calculate the response ratio. The potency of the antibodies was assessed for their ability to inhibit intracellular calcium release in C5aR1 expressing cells in the presence of C5a. Similar to the chemotaxis assay, the calcium flux assays were performed using engineered cells stably expressing C5aR1 as well as using human neutrophils.

Row | Molecule | inhibition of cell chemotaxis (C5aR1 (C5aR1-U937 cells)) | inhibition of chemotaxis as single agents (C5aR1 (C5aR1-U937 cells)) | inhibition of human neutrophil chemotaxis [1] | inhibition of C5a induced calcium efflux [2]
1 | B1 | strongest effects | inhibited chemotaxis as single agents in a dose-dependent manner | strongest effects | inhibition of the C5a induced calcium efflux
2 | B2 | strongest effects | inhibited chemotaxis as single agents in a dose-dependent manner |  | inhibition of the C5a induced calcium efflux
